{"source": "paper PMC4049585", "about": "“Identification and Characterization of a Ginsenoside-Transforming β-Glucosidase from Pseudonocardia sp. Gsoil 1536 and Its Application for Enhanced Production of Minor Ginsenoside Rg2(S)” (PLoS ONE, 2014)", "key": {"[1]": {"system": "T1, CC(C)=CCC[C@](C)(O[C@@H]1O[C@H](CO)[C@@H](O)[C@H](O)[C@H]1O)[C@H]1CC[C@]2(C)[C@@H]1[C@H](O)C[C@@H]1[C@@]3(C)CC[C@H](O)C(C)(C)[C@@H]3[C@@H](O[C@@H]3O[C@H](CO)[C@@H](O)[C@H](O)[C@H]3O[C@@H]3O[C@@H](C)[C@H](O)[C@@H](O)[C@H]3O)C[C@]12C", "T1 construct": "743 residues, 78,975 Da predicted; GST fusion (pGEX 4T-1) from E. coli BL21(DE3), 105 kDa with GST; forward primer encodes IDPVDLTL after GS", "assay": "initial velocity, Re conversion, Cleland kinetics program", "format": "biochemical, Pseudonocardia sp. Gsoil 1536", "conditions": "Re 0.2-5.0 mM; Re substrate lot purity 87.6%; temperature and buffer of kinetics not given", "description": "initial velocity, Re conversion, Cleland kinetics program on BglPC28"}, "[2]": {"system": "T2, O=[N+]([O-])c1ccc(O[C@@H]2O[C@H](CO)[C@@H](O)[C@H](O)[C@H]2O)cc1", "T2 construct": "743 residues, 78,975 Da predicted; GST fusion (pGEX 4T-1) from E. coli BL21(DE3), 105 kDa with GST; forward primer encodes IDPVDLTL after GS", "assay": "purified protein", "format": "biochemical, Pseudonocardia sp. Gsoil 1536", "conditions": "pNPG 1-20 mM, standard assay 50 mM sodium phosphate pH 7.0, 37°C"}}, "data": [{"substance": "BglPC28 (Pseudonocardia sp. Gsoil1536)", "values": [{"measurement": "Km", "setting": "[1]", "result": "1.42 ± 0.13", "unit": "mM"}, {"measurement": "Vmax", "setting": "[1]", "result": 5.62, "unit": "µmol/min/mg"}, {"measurement": "kcat", "setting": "[1]", "result": "7.4 ± 0.28", "unit": "s⁻¹"}, {"measurement": "kcat/Km", "setting": "[1]", "result": "5280 ± 690", "unit": "M⁻¹ s⁻¹"}, {"measurement": "Km", "setting": "[2]", "result": "6.36 ± 1.10", "unit": "mM"}, {"measurement": "Vmax", "setting": "[2]", "result": 40, "unit": "µmol/min/mg"}, {"measurement": "kcat", "setting": "[2]", "result": "52.7 ± 3.4", "unit": "s⁻¹"}, {"measurement": "kcat/Km", "setting": "[2]", "result": "8630 ± 2020", "unit": "M⁻¹ s⁻¹"}]}]}
